Reference: the supplement of paper PMC9112550, “Optimization of the antimicrobial peptide Bac7 by deep mutational scanning” (BMC Biology, 2022)
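Note: peptides expressed intracellularly from a pBAD plasmid library in pooled LB shake-flask culture, induced with 0.3% L-arabinose, DNA abundance read by NGS, three biological replicates, DESeq2 with apeglm shrinkage.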

What follows are sequences tested on Escherichia coli TOP10 (assay: shrunken log2 fold change of peptide-encoding DNA abundance (4.5 h post-induction vs induction); higher = less antimicrobial activity (less host growth inhibition)). Details: time post-induction: 4.5 h; library: site-saturation at positions 5, 18, 19, 20.
RRIRHRPPRLPRPRPRPYRPPRP was tested, and the “shrunken log2 fold change” value was -0.115.
For RRIRGRPPRLPRPRPRPRKAPRP, the “shrunken log2 fold change” value was 0.693.
With RRIRNRPPRLPRPRPRPKGDPRP the “shrunken log2 fold change” value was 0.0687.
With RRIRVRPPRLPRPRPRPHKCPRP the “shrunken log2 fold change” value was -0.274.
In the case of RRIRIRPPRLPRPRPRPGAHPRP, the “shrunken log2 fold change” value is reported as -0.0753.
RRIRFRPPRLPRPRPRPREYPRP was tested, and the “shrunken log2 fold change” value was -0.415.
RRIRERPPRLPRPRPRPMMFPRP was tested, and the “shrunken log2 fold change” value was -0.0555.
In the case of RRIRHRPPRLPRPRPRPWMMPRP, the “shrunken log2 fold change” value is reported as -0.463.
With RRIRPRPPRLPRPRPRPVWKPRP the “shrunken log2 fold change” value was 0.218.
With RRIRIRPPRLPRPRPRPTDYPRP the “shrunken log2 fold change” value was -0.223.
For RRIRDRPPRLPRPRPRPGLNPRP, the “shrunken log2 fold change” value was 0.184.
In the case of RRIRRRPPRLPRPRPRPVIDPRP, the “shrunken log2 fold change” value is reported as -0.165.
For RRIRPRPPRLPRPRPRPNLGPRP, the “shrunken log2 fold change” value was -0.242.
In the case of RRIRTRPPRLPRPRPRPHKYPRP, the “shrunken log2 fold change” value is reported as -0.295.
For RRIRTRPPRLPRPRPRPNTLPRP, the “shrunken log2 fold change” value was -0.377.
For RRIRKRPPRLPRPRPRPNDCPRP, the “shrunken log2 fold change” value was -0.0159.
For RRIRPRPPRLPRPRPRPSSIPRP, the “shrunken log2 fold change” value was -0.824.
RRIRIRPPRLPRPRPRPQSRPRP was tested, and the “shrunken log2 fold change” value was -0.0532.
For RRIRERPPRLPRPRPRPQMYPRP, the “shrunken log2 fold change” value was -0.337.
For RRIRTRPPRLPRPRPRPIVAPRP, the “shrunken log2 fold change” value was 2.95.
For RRIRPRPPRLPRPRPRPIFLPRP, the “shrunken log2 fold change” value was 0.124.
For RRIRNRPPRLPRPRPRPCAQPRP, the “shrunken log2 fold change” value was 0.127.
RRIRGRPPRLPRPRPRPLEEPRP was tested, and the “shrunken log2 fold change” value was 1.76.
For RRIRERPPRLPRPRPRPMYYPRP, the “shrunken log2 fold change” value was -0.241.
For RRIRIRPPRLPRPRPRPCEQPRP, the “shrunken log2 fold change” value was 0.0927.
With RRIRSRPPRLPRPRPRPEMTPRP the “shrunken log2 fold change” value was -0.0333.
With RRIRLRPPRLPRPRPRPPWWPRP the “shrunken log2 fold change” value was 0.695.
In the case of RRIRYRPPRLPRPRPRPHDCPRP, the “shrunken log2 fold change” value is reported as -0.00448.
For RRIRTRPPRLPRPRPRPENEPRP, the “shrunken log2 fold change” value was 0.138.
RRIRCRPPRLPRPRPRPALSPRP was tested, and the “shrunken log2 fold change” value was 0.282.
RRIRKRPPRLPRPRPRPERYPRP was tested, and the “shrunken log2 fold change” value was -0.0119.
For RRIRCRPPRLPRPRPRPLMMPRP, the “shrunken log2 fold change” value was 0.239.
RRIRRRPPRLPRPRPRPSFYPRP was tested, and the “shrunken log2 fold change” value was -0.36.
In the case of RRIRVRPPRLPRPRPRPWSDPRP, the “shrunken log2 fold change” value is reported as -0.138.
For RRIRFRPPRLPRPRPRPNQIPRP, the “shrunken log2 fold change” value was -0.23.
For RRIRARPPRLPRPRPRPLMFPRP, the “shrunken log2 fold change” value was 0.187.
RRIRFRPPRLPRPRPRPLRNPRP was tested, and the “shrunken log2 fold change” value was 0.514.
RRIRGRPPRLPRPRPRPFMNPRP was tested, and the “shrunken log2 fold change” value was -0.116.
In the case of RRIRIRPPRLPRPRPRPDYLPRP, the “shrunken log2 fold change” value is reported as -0.0127.
For RRIRRRPPRLPRPRPRPGYDPRP, the “shrunken log2 fold change” value was 0.0506.
In the case of RRIRCRPPRLPRPRPRPSFRPRP, the “shrunken log2 fold change” value is reported as -0.439.
For RRIRWRPPRLPRPRPRPRQNPRP, the “shrunken log2 fold change” value was 0.448.
For RRIRRRPPRLPRPRPRPKVDPRP, the “shrunken log2 fold change” value was 0.0529.
In the case of RRIRGRPPRLPRPRPRPAWWPRP, the “shrunken log2 fold change” value is reported as 1.39.
With RRIRVRPPRLPRPRPRPYMQPRP the “shrunken log2 fold change” value was -0.547.
In the case of RRIRYRPPRLPRPRPRPEKYPRP, the “shrunken log2 fold change” value is reported as -0.00973.
With RRIRNRPPRLPRPRPRPRIRPRP the “shrunken log2 fold change” value was -0.0657.
For RRIRWRPPRLPRPRPRPFDDPRP, the “shrunken log2 fold change” value was -0.121.
With RRIRTRPPRLPRPRPRPIFHPRP the “shrunken log2 fold change” value was -0.204.
RRIRDRPPRLPRPRPRPEPDPRP was tested, and the “shrunken log2 fold change” value was 1.33.
For RRIRNRPPRLPRPRPRPQVIPRP, the “shrunken log2 fold change” value was -0.000921.
RRIRRRPPRLPRPRPRPKPCPRP was tested, and the “shrunken log2 fold change” value was 0.126.
With RRIRWRPPRLPRPRPRPVSKPRP the “shrunken log2 fold change” value was 0.0519.
RRIRKRPPRLPRPRPRPQTVPRP was tested, and the “shrunken log2 fold change” value was 0.0918.
For RRIRCRPPRLPRPRPRPDFMPRP, the “shrunken log2 fold change” value was -0.163.
With RRIRCRPPRLPRPRPRPVCKPRP the “shrunken log2 fold change” value was -0.238.
With RRIRYRPPRLPRPRPRPQTWPRP the “shrunken log2 fold change” value was -0.573.
For RRIRSRPPRLPRPRPRPMLTPRP, the “shrunken log2 fold change” value was -0.0725.
With RRIRARPPRLPRPRPRPIDGPRP the “shrunken log2 fold change” value was 0.00408.
In the case of RRIRRRPPRLPRPRPRPCHKPRP, the “shrunken log2 fold change” value is reported as 0.153.
For RRIRDRPPRLPRPRPRPENHPRP, the “shrunken log2 fold change” value was -0.0926.
With RRIRTRPPRLPRPRPRPLYQPRP the “shrunken log2 fold change” value was -0.375.
In the case of RRIRKRPPRLPRPRPRPILIPRP, the “shrunken log2 fold change” value is reported as 0.0193.
With RRIRGRPPRLPRPRPRPHMKPRP the “shrunken log2 fold change” value was 0.103.
In the case of RRIRIRPPRLPRPRPRPRDTPRP, the “shrunken log2 fold change” value is reported as -0.534.
In the case of RRIRLRPPRLPRPRPRPIQNPRP, the “shrunken log2 fold change” value is reported as -0.403.
With RRIRSRPPRLPRPRPRPLFWPRP the “shrunken log2 fold change” value was 0.132.
In the case of RRIRARPPRLPRPRPRPYEPPRP, the “shrunken log2 fold change” value is reported as 0.116.
RRIRQRPPRLPRPRPRPKMQPRP was tested, and the “shrunken log2 fold change” value was -0.134.
In the case of RRIRYRPPRLPRPRPRPIYPPRP, the “shrunken log2 fold change” value is reported as -0.559.
For RRIRFRPPRLPRPRPRPKIKPRP, the “shrunken log2 fold change” value was -0.431.
RRIRGRPPRLPRPRPRPTPFPRP was tested, and the “shrunken log2 fold change” value was 0.629.
RRIRCRPPRLPRPRPRPVFSPRP was tested, and the “shrunken log2 fold change” value was -0.385.
In the case of RRIRDRPPRLPRPRPRPCYHPRP, the “shrunken log2 fold change” value is reported as -0.019.
With RRIRWRPPRLPRPRPRPHIIPRP the “shrunken log2 fold change” value was -0.441.
